Data taken from PMC9160355.

Target: Rho WT (Escherichia coli) (UniProt P0AG30)
Experiment: EMSA
Details: 25 mM Tris-HCl pH 8.0, 5 mM MgCl2, 50 mM KCl, 1 mM DTT, 0.1 mg/ml BSA; 5 nM RNA, 0-50 nM Rho; 37 °C 5 min; 4% native gel at 4 °C

Chain of Rho WT (Escherichia coli) (P0AG30 whole entry): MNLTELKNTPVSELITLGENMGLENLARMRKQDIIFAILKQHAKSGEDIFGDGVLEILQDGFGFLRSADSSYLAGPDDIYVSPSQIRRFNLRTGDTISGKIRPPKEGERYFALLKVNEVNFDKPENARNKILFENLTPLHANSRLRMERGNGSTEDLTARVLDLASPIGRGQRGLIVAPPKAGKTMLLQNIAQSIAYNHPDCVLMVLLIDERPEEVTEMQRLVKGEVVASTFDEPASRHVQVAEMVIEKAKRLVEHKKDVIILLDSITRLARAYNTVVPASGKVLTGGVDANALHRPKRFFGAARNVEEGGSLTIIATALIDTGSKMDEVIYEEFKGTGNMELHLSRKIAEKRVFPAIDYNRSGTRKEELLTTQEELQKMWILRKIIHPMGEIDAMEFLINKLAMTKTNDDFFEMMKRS

Row | Substance | Kd
1 | GGGAGAGCUGCUUGUUUAAAGCUGACUGGUUUUAUUGGAAUAGUGAAAUAGUCAACAUCAUACAUUAUAACAUCAGUUACUUUUCCACAAAGAAACUAAUCCAUUUAAGCGAAUAUCUCUGCACCUAAUAGUUAUAAAUGCCAUUUAACAGCCAGUUAUAGUACCACUUGAAACUAUAUUACCAACAAUAAUUAAUAGCUUUCGUAACAAUUUCCUUAUCUUUAAUUUGUAUUUUGCUAAGAUUUAUCUUAUGCUCACAAGUCGUAUUUCCAGAGGGGGAUAG [gfcA terminator RNA] | 19.9 nM
2 | dmsA terminator RNA | 16.1 nM
3 | gfcA terminator RNA | 19.9 nM
4 | gntX terminator RNA | 23.2 nM
5 | setC terminator RNA | 11.5 nM
6 | sodA terminator RNA | 9.99 nM
7 | trac (rac) terminator RNA | 3.08 nM
8 | yagM terminator RNA | 11.8 nM
9 | ycfJ terminator RNA | 18.5 nM
10 | ydeT terminator RNA | 16.3 nM
11 | ydhQ terminator RNA | 16.4 nM
